These results are taken from doi:10.1101/2021.12.21.473719 (bioRxiv, 2021).

The assay deals with T1, POPDC1-Myc (Popeye domain-containing protein 1, Myc-tagged) (mouse, UniProt Q9ES83 1-358).
T1 sequence (looked up): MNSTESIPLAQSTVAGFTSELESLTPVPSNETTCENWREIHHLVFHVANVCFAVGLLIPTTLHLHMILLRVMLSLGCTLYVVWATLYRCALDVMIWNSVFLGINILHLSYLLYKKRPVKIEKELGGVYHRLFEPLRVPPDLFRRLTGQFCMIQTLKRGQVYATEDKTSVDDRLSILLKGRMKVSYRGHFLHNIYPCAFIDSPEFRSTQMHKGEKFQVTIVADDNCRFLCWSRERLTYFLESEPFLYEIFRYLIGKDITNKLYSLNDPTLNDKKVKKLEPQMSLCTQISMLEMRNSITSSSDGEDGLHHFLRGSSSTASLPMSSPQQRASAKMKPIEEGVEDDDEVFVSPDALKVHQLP
In words: co-IP.

B1: AC1 (adenylyl cyclase type 1), non-tagged (enzyme)
chain: not shown
Turning to B1, the “fold Ca2+/calmodulin-stimulated AC activity over IgG controls” value was determined as 1.59 fold.
